Here are results for two molecules from article PMC13054468 (Analytical chemistry, 2025).

Values joined by “and” are separate entries in the source; they are usually repeats but may differ in a detail not shown here. Equal entries are not always repeated.

The target in series [1] is hepatitis B virus (HBV) capsid protein (hepatitis B virus) (UniProt P03146). Description: native MS.
Series [2] concerns the molecule itself. Description: native MS.

Broadly, the stoichiometry N is a count of units in the complex or per binding partner.

With “hepatitis B virus (HBV) capsid protein (from UniProt P03146 1-183) (natural protein)”, in series [1], the stoichiometry N is 240 and 180.

B1: cholera toxin B (natural protein)
chain: TPQNITDLCAEYHNTQIYTLNDKIFSYTESLAGKREMAIITFKNGAIFQVEVPGSQHIDSQKKAIERMKDTLRIAYLTEAKVEKLCVWNNKTPHAIAAISMAN
notes: also called CTB
With B1, the binding result in series [2] is recorded as “binds”.
